For assay [1], the target named is H-2Kb (MHC-I) presenting the ovalbumin epitope SIINFEKL (SEQ ID NO: 54) (mouse). Briefly: flow cytometry, 25-D1.16 staining of monocytes in OVA-loaded splenocytes against SQZ only, 2 and 4 h after SQZ.
Assay [2] shares this target. Briefly: flow cytometry, 25-D1.16 staining of T, B and NK cells in OVA-loaded splenocytes against SQZ only, 2 and 4 h after SQZ.

Some results are limits rather than exact numbers.

On to 25-D1.16 antibody, for which the increase in fluorescence intensity in assay [1] was above 10%; in assay [2] it was above 40%.

For the origin of these results see US20200318066A1.
